The subject of this data set is MS2 coat protein. The experiment in a line: apparent KD of MS2 coat protein; designed switch direction (-1 OFF switch, 1 ON switch): -1; higher = weaker reporter binding. In outline:
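SNAP-549-labelled MS2 coat protein was titrated, doubling from 0.7 or 1.5 nM to 3 µM, over designed RNA switches transcribed on Illumina chips by stalled E. coli RNA polymerase. Runs were done without input, with 200 uM small-molecule ligand, or with an oligonucleotide input. Apparent KD is the per-design median over clusters of curve-fitted normalised fluorescence.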

The mark [1] stands for this setting: input ligand: microRNA oligo, concentration not stated.
Setting [2] is: Eterna round: R95, input ligand: microRNA oligo, concentration not stated.
The mark [3] stands for this setting: Eterna round: R95, input ligand: FMN 200 uM.
[4] abbreviates: Eterna round: R95, input ligand: none.

Turning to “CAGUACUGAGGAUAUACAUGAGGAUCACCCAUGUGAGAAAUACUAGUGAGGUCGAUUAGUAGAAGGCAGUACUG [Mat - Exclusion 3 - Eli Mod - D31] (Eterna round: R97, puzzle: Exclusion 3)”, the “apparent KD of MS2 coat protein” value stood at 761 nM (input ligand: FMN 200 uM) and 35.4 nM (input ligand: none).

For the sequence “CAGUACUGAGGAUAUACAUGAGGAUCACCCAUGUGUACCAGCUAGGAUACUAGCAAAAGUAGAAGGCAGUACUG [Mat - Exclusion 3 - Eli Mod - D21] (Eterna round: R97, puzzle: Exclusion 3)”, the “apparent KD of MS2 coat protein” value (input ligand: FMN 200 uM) came out at 31.2 nM and the “apparent KD of MS2 coat protein” value (input ligand: none) was determined as 19.5 nM.

On to “CAGUACUGAGGAUAUACAUGAGGAUCACCCAUGUGUCCCAGCUAGGAUACUAGCAAAGGUAGAAGGCAGUACUG [Mat - Exclusion 3 - Eli Mod - D15] (Eterna round: R97, puzzle: Exclusion 3)”, for which the “apparent KD of MS2 coat protein” value by setting is: (input ligand: FMN 200 uM) 945 nM; (input ligand: none) 39.2 nM.

As for “CAGUACUGAGGAUAUACAUGAGGAUCACCCAUGUGUCCCGGCUAGGAAACUAGCAAAAGUAGAAGGCAGUACUG [Fiskers Ex 3 828 mod 2] (Eterna round: R96, puzzle: Exclusion 3)”, the “apparent KD of MS2 coat protein” value is, setting by setting: (input ligand: FMN 200 uM) 494 nM; under setting [1], 21.6 nM; (input ligand: none) 24.1 nM.

On to “CAGUACUGAGGAUAUACAUGAGGAUCACCCAUGUGUCCCGGCUAGGAAACUAGCAAAAGUAGAAGGCAGUACUG [Fiskers Ex 3 828 mod 2] (puzzle: Exclusion 3)”, for which the “apparent KD of MS2 coat protein” value under setting [2] came to 25.1 nM.

For the sequence “CAGUACUGAGGAUAUACAUGAGGAUCACCCAUGUGUGUGAAUUUUAUGUGGUCGUAAUGUAGAAGGCAGUACUG [JR_Ex3_Sub027] (Eterna round: R97, puzzle: Exclusion 3)”, the “apparent KD of MS2 coat protein” value (input ligand: FMN 200 uM) came out at 407 nM and the “apparent KD of MS2 coat protein” value (input ligand: none) is 86.3 nM.

As for “CAGUACUGAGGAUAUACAUGAGGAUCACCCAUGUGUGUGAGAAUUGUAUGAAUGUUAUGUAGAAGGCGGUGCUG [JR_Ex3_Sub033] (Eterna round: R97, puzzle: Exclusion 3)”, the “apparent KD of MS2 coat protein” value runs as follows: (input ligand: FMN 200 uM) 143 nM; (input ligand: none) 765 nM.

Regarding “CAGUACUGAGGAUAUACAUGAGGAUCACCCAUGUGUUCCAGCUAGGAAACUAGCGAAAGUAGAAGGCAGUACUG [salish99_ex3_r3_068] (Eterna round: R96, puzzle: Exclusion 3)”, the “apparent KD of MS2 coat protein” value by setting is: (input ligand: FMN 200 uM) 562 nM; under setting [1], 19.9 nM; (input ligand: none) 24.6 nM.

Consider “CAGUACUGAGGAUAUACAUGAGGAUCACCCAUGUGUUCCAGCUAGGAAACUAGCGAAAGUAGAAGGCAGUACUG [salish99_ex3_r3_068] (puzzle: Exclusion 3)”, for which, under setting [2], the “apparent KD of MS2 coat protein” value worked out at 22.9 nM.

Consider “CAGUACUGAGGAUAUACAUGAGGAUCACCCAUGUGUUCCAGCUAGGAAACUUGCAAAAGUAGAAGGCAGUACUG [salish99_ex3_r3_093x] (puzzle: Exclusion 3)”, for which the “apparent KD of MS2 coat protein” value under setting [2] turned out to be 11.9 nM.

In the case of “CAUACACAUGAGGAUCACCCAUGUGAGGAUAUGCGUACGUUGUCCGUAGGCGACGUGCGCAGAAGGCGCGUGAG [JL-ex1-3.14 Eli mod] (puzzle: Exclusion 1)”, under setting [2], the “apparent KD of MS2 coat protein” value turned out to be 45.3 nM.

As to “CAUAGUCUAGGAUAUUCACCUCUAUACAUGAGGAUCACCCAUGUCAAUGGCAGAUGACCAGAAGAAGGAGAAGUGG [Eternabot (L1) Solution 16] (Eterna round: R97, puzzle: Exclusion 5)”, the “apparent KD of MS2 coat protein” value (input ligand: FMN 200 uM) is 90.2 nM and the “apparent KD of MS2 coat protein” value (input ligand: none) amounted to 84.8 nM.

Regarding “CAUAGUUACUCAGGAUAUACUACAUGAGGAUCACCCAUGUAAUAAAUGAGAAUUUCGAAUGUAUAGUAGAAGGGAGAAAUCUAC [Ostracism 56 - Jieux - Exclusion NG 2] (Eterna round: R96, puzzle: Exclusion NG 2)”, the “apparent KD of MS2 coat protein” value (input ligand: FMN 200 uM) came to 18.3 nM, the “apparent KD of MS2 coat protein” value under setting [1] was 14.7 nM and the “apparent KD of MS2 coat protein” value (input ligand: none) was found to be 23.8 nM.

“CAUAGUUACUCAGGAUAUCAUACAUGAGGAUCACCCAUGUAAUAAAUGAGAAUUUCGAAUGUAUAUGAGAAGGGAGAAAUCUAC [Ostracism 59 - Jieux - Exclusion NG 2] (Eterna round: R96, puzzle: Exclusion NG 2)”: the “apparent KD of MS2 coat protein” value is, setting by setting: (input ligand: FMN 200 uM) 69.2 nM; under setting [1], 13.4 nM; (input ligand: none) 22.6 nM.

As for “CAUAUAGUAGUCAGGAUAUGCGAAGAGAGAAGGAAGUAGAAGGGACAUGAGGAUCACCCAUGUAUAUUGUAAAG [EX-4 Malc #3] (puzzle: Brourd's mod of Exclusion 4)”, the “apparent KD of MS2 coat protein” value runs as follows: under setting [3], 29.6 nM; under setting [2], 28.9 nM; under setting [4], 28.4 nM.

Take “CAUCACUGCUAGGAUAUCGAGUCGGAGAAUACUUGAGAAGGAGCUACAUGAGGAUCACCCAUGUCCUCCGCGAU [Eternabot (L2) Solution 72] (Eterna round: R97, puzzle: Exclusion 6)”: the “apparent KD of MS2 coat protein” value is, setting by setting: (input ligand: FMN 200 uM) 47.3 nM; (input ligand: none) 18.8 nM.

As to “CAUCAGGGAGGAUAUACAUAACUAAAAGGCUAGCAGUCCGUACAUGAGGAUCACCCAUGUAGAAGGCCCGAGUA [EX2 B.6] (Eterna round: R97, puzzle: Exclusion 2)”, the “apparent KD of MS2 coat protein” value (input ligand: FMN 200 uM) was determined as 46.9 nM and the “apparent KD of MS2 coat protein” value (input ligand: none) was found to be 20 nM.

In the case of “CAUGAAGACAAGGAUAUCCGAAUGACGUAAGAAGGAGAAGGUGUCACAUGAGGAUCACCCAUGUGGGAUCUCUG [EX6 B.15] (Eterna round: R97, puzzle: Exclusion 6)”, the “apparent KD of MS2 coat protein” value (input ligand: FMN 200 uM) stood at 138 nM and the “apparent KD of MS2 coat protein” value (input ligand: none) is 23.9 nM.

As for “CAUGAGGUAGGAUAUACGAUAAUAUAGGGUAGAUAUAUAACACAUGAGGAUCACCCAUGUAGAAGGACCAGUAC [Mat - Exclusion 2 - Mod of my Tesla design - D68] (puzzle: Exclusion 2)”, the “apparent KD of MS2 coat protein” value stood at 95.7 nM under setting [3], 35.9 nM under setting [2] and 34.4 nM under setting [4].

As for “CAUGAUCUUCGGAUCAUGUACAUGAGGAUCACCCAUGUGACGAGUAUAUCUUCAAACAAGCUUUUUGCUCGUCUUAU [Sensor v3 - Turn-off variant 1 - 23] (puzzle: Sensor v3, turn-off variant 1)”, the “apparent KD of MS2 coat protein” value worked out at 41.6 nM under setting [3], 49.8 nM under setting [2] and 41.6 nM under setting [4].

For “CAUGAUUGGCGAGGAUAUUGACCUAGUUAGCGACGAGAAGGCGCCUGUCACAUGAGGAUCACCCAUGUGAAUCUGGUGAAAGAG [Ex NG1 #92] (Eterna round: R96, puzzle: Exclusion NG 1)”, the “apparent KD of MS2 coat protein” value by setting is: (input ligand: FMN 200 uM) 21.6 nM; under setting [1], 13.3 nM; (input ligand: none) 18.3 nM.

As for “CAUGAUUGGCGAGGAUAUUGAUCUAGUUGGCGACGAGAAGGCGCCUGUCACAUGAGGAUCACCCAUGUGAGUCUGGUGGAUGAG [Ex NG1 #87] (Eterna round: R96, puzzle: Exclusion NG 1)”, the “apparent KD of MS2 coat protein” value reads like this: (input ligand: FMN 200 uM) 21.4 nM; under setting [1], 16.5 nM; (input ligand: none) 20.4 nM.

“CAUGAUUGGCGAGGAUAUUGAUCUAGUUGGCGACGAGAAGGCGCCUGUCACAUGAGGAUCACCCAUGUGUGUCUGGUGAAUGAG [Ex NG1 #86] (Eterna round: R96, puzzle: Exclusion NG 1)”: the “apparent KD of MS2 coat protein” value by setting is: (input ligand: FMN 200 uM) 82.5 nM; under setting [1], 48.4 nM; (input ligand: none) 63.3 nM.

As to “CAUGCACAUGAGGAUCACCCAUGUCAGGAUAUCUAUCAUAGCAUCGAAAGAUGCGGGUAGAGAAGGGACAACCC [ChP Ext 10-04-2015 #10] (puzzle: Exclusion 1)”, the “apparent KD of MS2 coat protein” value under setting [2] was 15.5 nM.

For the sequence “CAUGUCCGAGGAUAUAUUAUGUGAAACAUGAGGAUCACCCAUGUUAUAUGAUGGAUGUAAAUAGAAGGCGGACGUG [Mat - Exclusion 5 - JL mod - D65] (puzzle: Exclusion 5)”, the “apparent KD of MS2 coat protein” value is, setting by setting: under setting [3], 26.3 nM; under setting [2], 31.6 nM; under setting [4], 34.5 nM.

As for “CAUUAUGUUGAGGAUAUGCGCCGGCUCGCUGACGCAGAAGGCGACACAUGAGGAUCACCCAUGUCAGUUCGCGA [salish99_ex6_r004_420] (Eterna round: R97, puzzle: Exclusion 6)”, the “apparent KD of MS2 coat protein” value reads like this: (input ligand: FMN 200 uM) 15.8 nM; (input ligand: none) 14.5 nM.

As for “CAUUCACAUGAGGAUCACCCAUGUCAGGAUAUAGUCGAUAUAUGGAAACAUAUAUCGACUAGAAGGGACUAGCG [Jieuxxlusion 13 - Jieux - Exclusion 1] (Eterna round: R97, puzzle: Exclusion 1)”, the “apparent KD of MS2 coat protein” value reads like this: (input ligand: FMN 200 uM) 152 nM; (input ligand: none) 52.6 nM.

With “CCAAGCUAAAUCAUUAACAACAUGAGGAUCACCCAUGUGUAAGCAAUUAUGUUUGGGCUCUUUAGUGCUCGUCUUAU [JR_STOV1_Sub043] (Eterna round: R97, puzzle: Sensor, turn-off variant 1)”, the “apparent KD of MS2 coat protein” value was 15.7 nM (input ligand: FMN 200 uM) and 16.3 nM (input ligand: none).

Consider “CCAAGCUUGUUCAUUAACCACAUGAGGAUCACCCAUGUCUUGGCAAUUAUGACUUGCCCGUCAGGUGCUCGUCUUAU [Sensor-V1 #35] (Eterna round: R97, puzzle: Sensor, turn-off variant 1)”, for which the “apparent KD of MS2 coat protein” value was 65.5 nM (input ligand: FMN 200 uM) and 71.3 nM (input ligand: none).

With “CCACCGCCGUCAGGAUAUAACAUGAGGAUCACCCAUGUGUGAAGCAUGAGAGACUCUAACAAGUGUUAGAAGGGACUUAUUGCG [Eternabot solution 36] (Eterna round: R96, puzzle: Exclusion NG 2)”, the “apparent KD of MS2 coat protein” value was found to be 176 nM (input ligand: FMN 200 uM), 63.2 nM under setting [1] and 75.8 nM (input ligand: none).

For the sequence “CCACGACAUGAGGAUCACCCAUGUCAGGAUAUCCCUCAUUGUAUGAAAAUACAAUGAGGGAGAAGGGACGUGAC [SS1 Omei 2] (puzzle: Exclusion 1)”, the “apparent KD of MS2 coat protein” value under setting [2] is 27.1 nM.

The values above are taken from the supplement of paper PMC9170038.
